In this experiment the target is BjVIII, myotoxic Lys49-PLA2 from Bothrops jararacussu venom (Bothrops jararacussu). Briefly: tricine SDS-PAGE under non-reducing conditions.

By stoichiometry N is commonly meant the number of molecules, sites or subunits per partner or assembly. With “BjVIII, myotoxic Lys49-PLA2 from Bothrops jararacussu venom (natural protein)”, the stoichiometry N worked out at 2.

(Values after publication PMC2635704.)
